Reference: PMC2821871 (Biochemistry, 2010)
No end group written: not given here. *: point of attachment. Biotin = O=C1N[C@H]2[C@H](CS[C@H]2CCCCC(=O)*)N1

T1: CR17 of LRP (human, UniProt Q07954 2770-2817)
T1 chain (looked up): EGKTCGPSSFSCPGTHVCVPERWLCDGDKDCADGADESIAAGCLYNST


How the values were obtained:
[1] = target: CR16-18 of LRP (P. pastoris) (human, UniProt Q07954 2731-2857); experiment: SPR
CR17 of LRP = target: T1, CR17 of LRP

CR16-18 of LRP (P. pastoris), sequence (Q07954 2731-2857): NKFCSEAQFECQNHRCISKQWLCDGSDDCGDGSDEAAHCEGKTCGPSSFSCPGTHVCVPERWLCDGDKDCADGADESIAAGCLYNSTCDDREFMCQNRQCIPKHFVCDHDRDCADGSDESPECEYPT

| Binder | Kd [1] | Kd (CR17 of LRP) | KD (Global) (CR17 of LRP) | KD (Largest) (CR17 of LRP) | KD (Sum) (CR17 of LRP) |
| --- | --- | --- | --- | --- | --- |
| Biotin-LRKLRKRLLRDADDLLRKLRKRLLRDADDL (peptide, UniProt P02649 159-173, looked up) [biotinylated ApoE(141-155)^2 peptide] | ~0.0002 mM | – | – | – | – |
| TEELRVRLASH (peptide, UniProt P02649 148-158, looked up) [Ub-ApoE(130-140)] | – | > 5 mM | – | – | – |
| TEELRVRLASHLRALRARLL (peptide, UniProt P02649 148-167, looked up) [Ub-ApoE(130-149)(K143/146A)] | – | 3.46 mM | 3.84 ± 0.801 mM | 2.76 ± 0.361 mM | 3.78 ± 0.375 mM |
